Measurements as given in publication PMC6611172 (ACS chemical biology, 2018).
Ends that are not written are not given here.

Tests used:
[1] = target: GAS41 YEATS domain (residues 13–158), His6-tagged, 15N-labeled (human) (UniProt O95619); assay: NMR titration
[2] = target: GST-tagged GAS41 YEATS (residues 1–148) (human) (UniProt O95619); assay: ITC
[3] = target: full-length GAS41, Avi-tagged, mono-biotinylated (human) (UniProt O95619); assay: BLI
[4] = target: full-length GAS41, Avi-tagged, mono-biotinylated (human, UniProt O95619 1-227, biotin (mono-biotinylated on the Avi tag by BirA)); assay: BLI
Sequence of full-length GAS41, Avi-tagged, mono-biotinylated (O95619 whole entry, the tested form may be a part): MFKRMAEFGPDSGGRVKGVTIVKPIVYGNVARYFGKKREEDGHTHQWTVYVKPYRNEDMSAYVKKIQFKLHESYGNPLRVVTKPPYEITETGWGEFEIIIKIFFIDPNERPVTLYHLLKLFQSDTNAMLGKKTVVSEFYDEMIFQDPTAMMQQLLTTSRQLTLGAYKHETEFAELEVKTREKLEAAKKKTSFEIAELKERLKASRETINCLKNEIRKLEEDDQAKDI

[5] = target: GST-tagged GAS41 YEATS (residues 1–148) (human, UniProt O95619 1-148); assay: ITC
Sequence of GST-tagged GAS41 YEATS (residues 1–148) (O95619 1-148): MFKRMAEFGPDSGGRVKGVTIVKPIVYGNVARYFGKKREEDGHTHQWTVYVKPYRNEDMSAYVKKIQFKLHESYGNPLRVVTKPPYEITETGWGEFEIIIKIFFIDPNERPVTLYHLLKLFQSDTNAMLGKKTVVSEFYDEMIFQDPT

Sequence of full-length GAS41, Avi-tagged, mono-biotinylated (human) (O95619 whole entry): as the sequence (O95619 whole entry, the tested form may be a part) above
Sequence of GAS41 YEATS domain (residues 13–158), His6-tagged, 15N-labeled (human) (O95619 13-158): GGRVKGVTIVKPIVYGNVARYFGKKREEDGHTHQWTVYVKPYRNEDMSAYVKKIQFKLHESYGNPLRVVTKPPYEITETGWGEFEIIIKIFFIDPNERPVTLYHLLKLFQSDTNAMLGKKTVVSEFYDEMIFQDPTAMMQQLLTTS
Sequence of GST-tagged GAS41 YEATS (residues 1–148) (human) (O95619 1-148): as the sequence (O95619 1-148) above

Row | Molecule | Kd [1] | Kd [2] | stoichiometry N (peptide : YEATS domain) [2] | Kd [3] | also measured
1 | H3 peptide with succinylated K27 (H3K27su) | > 1000 µM | – | – | – | –
2 | H3K18acK27ac peptide | – | 12.5 µM | 0.5 | 3.2 µM | –
3 | H3K27cr peptide | 34 µM | 23.4 µM | – | – | –
4 | H3K14ac peptide | 720 µM | – | – | – | –
5 | H3K18ac peptide | 106 µM | – | – | 36 µM | –
6 | H3K23crK27cr peptide | – | 11.1 µM | 0.5 | – | –
7 | H3K27ac peptide | 58 µM | 39 µM | 1 | 81 µM | –
8 | tripeptide AKacA | 1000 µM | – | – | – | –
9 | ATK(Ac)AARK(Ac)SAP [H3K23acK27ac peptide] | – | – | – | – | Kd [4]: 5 µM; Kd [5]: 13.6 µM
